# Laboratory results reported in the DeepSol protein solubility set.
# Assay: soluble on expression in E. coli; label from the status in PepcDB or PDB records
row,Sequence,soluble on expression in E. coli
1,MGACRRIFKNYEPCELTICVTIICEPRSPPKFDHWKISKPGCPPKIISCSKATNNDVNREKRSRRKLVKKRTPSEVIEKLEEQEGSENCENVPFDKPLLHSDSATLICDEVATSRSPFEISTNEVENVDIQSEPRDRHVSITSMESVAGLGEADDQDDVTILKGLEEVHEIEVDKTVIEESIPNQPKGQRFDLLSNGDVTIPAMIMNDVDGPKKKLLVRRKKKSKTPDSPPQYRDYTETSIYMYIEMDKQNVGEFVWDQQCTRIDALVAPIVELDRMTTPEIPLEIELFD,not soluble
2,MGATLTVAVAACTVSTPTSAIPVTHIKCLRINGQIKCVKPISPNTTPAAEHIEHVRKNPRRKAAMDRAAARIADKIALKAGGETFVSLRMKKGFTQSELATAAGLPQPYLSRIENSKQSLQDKTVQKLANALGVSPLEVRAAFERRYEYMEQA,soluble
3,MGAVSAFSWASSGRLHALEVFVMKIPKTYDEIMEHFGGLIDEVTAELLESYAKGETVRVSEALAKSGRVAVEGVVLRVFPVRHFSKNGRSGKVGSVVIQDDCTVRVNFWNEAAEIIEAGDIVEGARIKVRGYARGEEIHVNSLSEVEVFVDFVNISELDEKVGERVNVKGFVSGLGEPEKANEIYISDETGRVKVLLENESLYYAVDIGSYVEIYNALAGEDGIYVDRNSRFSVGE,soluble
4,MGDRFDSARHRVEAAAIKAFAGEFDPQPFHLDEEAARHSLFGGLAASGWHTAAITMRLLVTSGLPLAQGIIGAGTELSWPNPTRPGDELHVETTVLAITPSKSRPDRAIVTCQSDTLNQRGEVVQRSTAKVVVFRRPLEHHHHHH,not soluble
5,MGEHKNCKCNRWVISLQAAFDRDDFEKLFRKAVQSITEEEFQRIPEFRHREDALACLFGRLLLRHSAQKFSGEPWNTIRFERTERGKPFLAVPADTTFGLNVSHQGDYVAFASSCSSKVGVDVMRLDNERNNKTADEYINSMAKSASPEELRMMRSQPTEAMKMTMFYRYWCLKEAILKATGVGIMKDLNSLDFRVNLQDRYRPGAFVTSTTVLEDGRLQDQWIFEETFVDAKHSAAVCKEKKLPRECVFRQDPEAKIFFSKITFESLLENAEITNPMPNNAADIFEEFMAKPKKTF,not soluble
6,MGEITQYSVSPALPAGLAIDPQTGVITGTPTAVTASAVYTVTGANSVDSVQALLTIEVAAVAVPPVGLVYVDRLPEYIVGVPITYNEPAYTGGEVTQFSISPALPAGLTLNTQSGVISGTPTVELAQTTFFITASNSAGLEHHHHHH,not soluble
7,MGEREGRVDSLLDTLYNLSEEKEAFFITQKMKKLFSVKLSKSKVILVAACLLLAGSGTAYAAHELTKQSVSVSINGKKKHIRTHANTVGDLLETLDIKTRDEDKITPAKQTKITADMDVVYEAAKPVKLTINGEEKTLWSTAKTVGALLDEQDVDVKEQDQIDPAIDTDISKDMKINIEPAFQVTVNDAGKQKKIWTTSTTVADFLKQQKMNIKDEDKIKPALDAKLTKGKADITITRIEKVTDVVEEKIAFDVKKQEDASLEKGKEKVVQKGKEGKLKKHFEVVKENGKEVSRELVKEETAEQSKDKVIAVGTKQSSPKFETVSASGDSKTVVSRSNESTGKVMTVSSTAYTASCSGCSGHTATGVNLKNNPNAKVIAVDPNVIPLGSKVHVEGYGYAIAADTGSAIKGNKIDVFFPEKSSAYRWGNKTVKIKILN,soluble
8,MGEVKDLGMADHGGFDLKIGARVVLEDVKLGDSIAVNGTCLTVTEFNAEEFTVGLAPETLRKTSLEELKKGSPVNLERALQPVSRMGGHVVQGHVDGTGVIESMEVEGDSLWVKVKADKGLLKYIVPKGFVAVDGTSLTVVDVFDEESCFNFMMIAYTQQNVVIPTKKIGQKVNLEVDIMGKYVERLLTSGGFSKGN,soluble
9,MGFCNMLLLSNILLTAWLSTAKGEEILCTPPRVENGDGLNVKPVYKENERYHYKCKHGYVPKERGDAICTGSGWSSQPFCEEKTCSPPYILNGIYTPHRIIHRSDDEIRYECNYGFYPVTGSTVSKCTPTGWIPVPRCTLKPCEFPQFKYGRLYYEESLRPNFPVSIGNKYSYRCDNGFSPPSGYSWDYLRCTAQGWEPEVPCVRKCVFHYVENGDSAYWEKIYVQGQSLKVQCYNGYSLQNGQDIMTCTENGWSPPPKCIRIKTCSASDIHIDNGFLSESSYIYALNRETSYRCKQGYVTNTGEISGSITCLQNGWSPQPSCIKSCDMPVFENSITKNTRTWFKLNDKLDYECLVGFENEYKHTKGSITCTYYGWSDTPSCYDSTRTCGPPPPIDNGDITSLSLPEYEPLSSVDYQCQKYYLLKGNKTITCRNGKWSEPPTCLHACVIPENIMEAHNIILKWRHTEKIYAHSGEDIEFECKRGYQKARGSLPFRTKCINGTINYPTCV,soluble
10,MGFLQRIGLLPQVTTTPTQHELLAPLLDTYIGVVTEMPTEELFAEQPHLRTVTTFIARAISSTSLHVYRRDSDGGRHRVRDSDLAKLMRRSSKTELMQDMLNGSILDLCLYDEFIWVAMEDSDSGEWELHRIPPTWIKQRKHSDPWTLEWMGIIDAKTGQQIKIPAERIIHVHGYNPTSTSRGLTPVVALRETLKEQLESAAYRGQLWRNGPRLGGVITRPKDAKWDSTSRKRFKAAWQSQYSGRGSGAGGTPILEDGMQFVPAHLKAQDEQVVEMTKLSLQTVASIYHVNPVMVGLLDNANYSNVREFRRSLYGDSLGPIIKQVEGVINEFLRPMIDDDDAVYVEFNLDEKLRASFEEKAAVTSTAVGGPWMTRNEARAMNNLPAIDGGEDLITPLNVTTENSESNNDVGLEEES,not soluble
11,MGFRLGIVGLPNVGKSTLFNALTKTMKAQAANYPFCTIEPNVGVVEVPDERLYKLAEIEKSQKITPTFIEFVDIAGLVKGASKGEGLGNQFLSHIREVDAVAMVLRAFEDENIVHVEGSVDPVRDKEIVEIELIAKDLESVNRRIEKVQKVAKGGDKKAREEMEHLNALKEILENLEPIRKYADKLPPETLEYAKKTLFLLTVKPVMYIANISEKDLPEGEGNPHVERIKEMANQENAPVVVISAELEAQLAGLSEEEQKEMLEAYGLKEPGLNKVIRTGYRLLDLITFFTAGEREARAWTVKRGTKAPQAAGKIHSDMERGFIAAEVISYEDLIKAGSWAKAKEQGLIRLEGKDYEIQDGDVVYFRFNV,soluble
12,MGGDFGPSVTVPAALQALNSNSQLTLLLVGNSDAITPLLAKADFEQRSRLQIIPAQSVIASDARPSQAIRASRGSSMRVALELVKEGRAQACVSAGNTGALMGLAKLLLKPLEGIERPALVTVLPHQQKGKTVVLDLGANVDCDSTMLVQFAIMGSVLAEEVVEIPNPRVALLNIGEEEVKGLDSIRDASAVLKTIPSINYIGYLEANELLTGKTDVLVCDGFTGNVTLKTMEGVVRMFLSLLKSQGEGKKRSWWLLLLKRWLQKSLTRRFSHLNPDQYNGACLLGLRGTVIKSHGAANQRAFAVAIEQAVQAVQRQVPQRIAARLESVYPAGFELLDGGKSGTLR,soluble
13,MGGMLRRLEVQNLAVIREAALDFAPGLNVLTGETGAGKSLLVDALALLLGGRAEGLIGPYGESLLVTAFFEGPPGEAVLSRRVGARSTPRVDGEVVTLKELQAEAERRLSLHAQHTALALLSPRRQREALDALLPEGLLAAYQEAYARREALLKEKAALEESLKARAEREDLLRYQIREIEEARVRPGEEEELLALAERLRHLETIRERLARALALLTEREAQDLLALAAKEVRAAARHDPALEALAEELSGAAEAVRAVARELEDHLEGLDLDPEELDRVEARLSLLERLKRKYGPTLADVLAHAQKAREELARMEGGEERLSEVERLLKALHEEVEARGQALRRAREEAARRLTEGMVRELPALGLAGARFAVVLEPLPEPGPQGLEAVAFRVAPNPNLPPAPLEALSGGELSRVALALALLTGTEAPTVVFDEVDAGVGGETAWRLAERLKRLAERRQVLVVTHLPQVAAVAQRHFRVTKTPEGVRVEPLAGEARVKEIARLLSGAYTQAALAHARELLEAQGAL,soluble
14,MGGRQSSVTEERPRSNSVDTAQVRVSSQHSSSQRANVMTAAEFMQTMRNARFLSSSSDSNASEDDAGPSHSTTHGNRSRGLHATPGRLHGHHSRRSVPVFMMDMKCPVCHKVVPSDDADIHLVMCLTRPKITYNDDVLKDDKGECSICLEDLEAGHKIARLPCLCIYHKQCIDDWFKRKNCCPEHPGDD,not soluble
15,MGGSHHHHHHGMASALERYAAALEEVADGARQQERHYQLLSALQSLVKELPSSFQQRLSYTTLSDLALALLDGTVFEIVQGLLEIQHLTEKSLYNQRLRLQNEHRVLRQALRQKHQEAQQACRPHNLPVVQAAQQRELEAVEHRIREEQRAMDQKIILELDRKVADQQSTLEKAGVAGFYVTTNPQELMLQMNLLELIRKLQQRGCRAGNAALGLGGPWQSPAAQCDQKGSPVPP,not soluble
